Test results taken from the supplement of paper PMC12042874.
± gives the uncertainty stated by the source.

Assay: amyloid nucleation score (Sup35N fusion, yeast selection) (log enrichment); library NNK1; higher = more nucleation; inactive = no reads after selection
In short: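 Peptides of 20 random codons fused to Sup35N were expressed in psi-negative yeast, induced 24 hours with 100 μM copper sulfate, then grown 7 days at 30°C on medium lacking adenine and uracil. Input and output plasmid inserts were Illumina-sequenced. Nucleation score is the DiMSum log enrichment of output over input reads, centred on the mode score of non-aggregating sequences, excluding sequences with under 100 input reads. Random libraries had three technical output replicates.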

Substance	amyloid nucleation score
CFSRHAICT	-0.863 ± 0.88
CFVGYQW	0.622 ± 0.63
CFVVAWCKTITV	1.02 ± 0.66
CFVVVCLFMKA	inactive
CFWVEMFFSETHMIKNYCIV	1.27 ± 0.61
CGALWALKV	-1.04 ± 0.78
CGCETDMGSA	inactive
CGDGPHHVLCLSVVDICVGC	-1.04 ± 1.6
CGDKNILTRIWLERVSVLAS	0.056 ± 0.33
CGDMWLTDSLHGMNCSLFRR	inactive
CGKSIEETSLRNPIPGNVLG	0.476 ± 0.55
CGMMVSEGSVSCRSLPIYLA	0.275 ± 0.34
CGYCD	-1.69 ± 2.4
CHCNL	1.81 ± 0.38
CHGCLGG	-0.312 ± 1.5
CHGKESRTVREVHDLLVYVS	-0.408 ± 0.78
CHLNFMCWPTAQDENMPIFG	-0.09 ± 0.31
CHVIIVQRYFMSVTLSQCWW	0.489 ± 0.24
CHWSCRSEVMPESVTDAGGW	-0.072 ± 0.67
CIDDFSNFVRNVGAFGEYSF	-0.752 ± 0.53
CIIMCLRSDPV	0.211 ± 0.3
CIIVNMFYWALFYFGSEMFS	0.738 ± 0.53
CIKNSLRRYMCAYFSWGRRG	-0.744 ± 1.2
CIMMRHMVSYEADLRTMFLN	3.58 ± 0.18
CIRMVRGSTGSTVNMSSRCS	0.347 ± 0.27
CISLTCVVYGSML	7.213 ± 0.048

Substance	amyloid nucleation score
CITTVPHQPMVLWTICFPTM	0.614 ± 0.95
CKSGDLSECCRIWHRWA	0.048 ± 0.27
CKVLCYIAYTWNLDCTEFEG	6.449 ± 0.063
CLAFQLDWLRMGLFKSMEGT	-0.384 ± 0.35
CLEVGFVCWNCNRLFKCLCQ	1.1 ± 0.56
CLFSWD	0.118 ± 0.3
CLGYGYSSEDTQTSLCSGVE	-0.642 ± 1
CLILTRCVSYGRPMTACLVL	0.16 ± 0.56
CLKLDNMTRLVTNGTLGSAS	inactive
CLLLVMTVTGGGSVTMLSQM	-0.078 ± 0.32
CLNWVCRRFWVSITHFWAWV	0.066 ± 0.51
CLQFSVEARRLLKLNVGALE	2.29 ± 0.13
CLQWPEYPDYSVGGAFRRTG	-0.311 ± 0.48
CLVHVRVSHNWDVTMMFGVR	0.555 ± 0.24
CLYICIMGRIDAISSHSQII	0.453 ± 0.43
CLYPVLQVPMCGNMAERQGV	0.074 ± 0.69
CMILFTNRQRVMRLVLCLSD	0.044 ± 0.49
CMYALT	0.015 ± 0.39
CNLIYCTFDYLNFWDYYTID	6.64 ± 0.054
CNLSNVSLLFRYELLISGSY	0.748 ± 0.35
CNRPGF	-0.249 ± 0.44
CNWPDLDLSNRKWNPMKSML	0.146 ± 0.69
CNYSSSTVGYRSDMRVCSDT	0.405 ± 0.61
CPITWNFLCGIVLIEYYRVV	7.04 ± 0.087
CPWTVMLHFSYDYCARGFKV	-0.505 ± 0.57
CQDGLDNLNCGAMVYFVVGD	2.25 ± 0.22

Substance	amyloid nucleation score
CQISI	-2.17 ± 2.4
CQSKYYIMRACCFMATLWYW	-0.475 ± 0.47
CQYVFVCRHFFLGKNHEALE	-0.462 ± 0.86
CRCTVNHVMVRLSRGCRDAH	inactive
CRLCLRKHLSVISSSAEYLP	inactive
CRSSHE	0.109 ± 1.4
CRSVCGRIS	0.177 ± 0.77
CRSYNYLIVMKDLLPSALKT	1.23 ± 0.36
CRYFSSSSGEAGQIFVVICG	-0.201 ± 0.67
CRYSACAKRMSSFCRVRMCL	0.194 ± 0.66
CRYYRCSQKLDKLVTFTKKS	0.722 ± 0.49
CSCYAM	3.25 ± 0.19
CSCYQALKLA	-0.49 ± 0.88
CSDCARIGLMSRCGDETW	0.132 ± 0.28
CSDRVKTLSFCWSPSVVFW	-0.636 ± 0.95
CSFGQIPCNLDQTGLLRARG	1.1 ± 0.55
CSFLRFQIVMCCRLLDRVLC	1.72 ± 0.63
CSFMCLARLVSYQIESLW	-0.062 ± 1.2
CSGCYPRLCESMLNGNSGYV	1.31 ± 0.31
CSGMMARPWIYLVGVYKISN	2.26 ± 0.17
CSKRTTYYFPWFICELTRLV	-0.195 ± 0.6
CSNLQLAHKRRISNWSNLWC	-0.029 ± 0.98
CSSVAS	0.113 ± 0.31
CSYDNVPDLFC	0.582 ± 0.68
CSYQNCLVN	-0.795 ± 0.29
CTIILL	2.78 ± 0.14

Substance	amyloid nucleation score
CTNATVPASSTERV	1.55 ± 0.5
CTSCQYKCNCWGCVRYQTWF	2.41 ± 0.27
CTSPLVLIHKYYYVMVAVHS	0.821 ± 0.55
CTVKLLMCQAISLTCSLGFF	0.534 ± 0.56
CTVLRRFIRYHTITVYMWL	0.257 ± 0.75
CVAWNIDW	0.069 ± 0.76
CVFGYCVALHF	6.18 ± 0.073
CVFRSYWVCLWSDNNGDVR	8.325 ± 0.07
CVGSIKVNSLSRLFCHLLCV	-0.187 ± 1.2
CVGVWVRFLTQQCSTHKQYE	-0.116 ± 1.2
CVHYLYEILQGILLNYSFLL	-0.737 ± 0.4
CVLPFGLSSG	0.483 ± 0.48
CVNFFGCHCVHN	7.735 ± 0.069
CVSCVSGILFEMCPSSFPNQ	-0.578 ± 0.9
CVTANRHDENITSLLWRIVQ	-2.36 ± 2.4
CVVWAEVRVR	-0.419 ± 0.79
CVWFFLFPVQAITLFDLESV	-0.033 ± 0.74
CVYVSMLH	-0.483 ± 0.85
CWTSFYDC	0.448 ± 0.49
CYALNWCRLPALHSFFQCRK	0.853 ± 0.65
CYAPSFWTYWCLCSCMVDPN	5.8 ± 0.081
CYDQKILLLLISVTYVRTSD	-0.34 ± 1
CYFCYQGYMID	-0.537 ± 0.33
CYLCSSSF	1.67 ± 0.24
CYLSNLAMSHSCMHYALTAA	-0.713 ± 1.4
CYMYFWNRVDFT	0.581 ± 0.17

Substance	amyloid nucleation score
CYRPFSQNLPSVMLEFILAE	0.146 ± 0.27
CYSKKVLHCFKTSCLTLQVT	1.27 ± 0.42
CYVHEFMDEPSRSNGDGVWC	-0.512 ± 1.2
CYYLFLHSCSYARGIFC	-0.366 ± 0.52
DAADMTGLFNRLLCVFEYVW	0.797 ± 0.66
DAASHYINLCNHSAEFSKVG	1.42 ± 0.53
DAGMH	0.189 ± 0.3
DAHAISINHYRLSQTLSVPW	-0.148 ± 0.35
DAILLHYSNDMLYSYYRRVG	-0.937 ± 0.65
DALWKVFKDWLGGADQRGFP	0.29 ± 0.78
DATTTLFL	-0.281 ± 0.77
DAVSGGVFNCVLFNKVLSLM	-0.597 ± 0.32
DAVSYNSPGGELYDLFNLTA	-0.994 ± 0.97
DAYVLD	0.314 ± 0.34
DCFARVLLTMRYLKGVVYTE	1.13 ± 0.27
DCFYLSIGRIFFHP	2.92 ± 0.21
DCIACRECSMTSKLLGGLGT	0.859 ± 0.39
DCKAYSIRSNV	0.705 ± 0.36
DDKITSLLVMSRDKVKPMSD	inactive
DDLTVMVGPYMGGS	-0.82 ± 1.1
DDMCFLN	0.797 ± 0.34
DDRVSQLAWGLCAVSYARLE	0.681 ± 0.54
DDSGRL	0.494 ± 0.59
DDTIFLMRAIMVFNLICWCV	inactive
